In US20180298051A1:

Assays:
Assay in all cases: cell-based or functional assay
[1] = target: C-terminal HA tagged human Leptin receptor on LepR SIE-Bla cells (human) (UniProt P48357)
[2] = target: human LepR on Baf3 LepR cells (human) (UniProt P48357)
[3] = target: human FSHR on FSHR CRE-Bla cells (human) (UniProt P23945)
Sequence of human FSHR on FSHR CRE-Bla cells (human) (P23945 18-695): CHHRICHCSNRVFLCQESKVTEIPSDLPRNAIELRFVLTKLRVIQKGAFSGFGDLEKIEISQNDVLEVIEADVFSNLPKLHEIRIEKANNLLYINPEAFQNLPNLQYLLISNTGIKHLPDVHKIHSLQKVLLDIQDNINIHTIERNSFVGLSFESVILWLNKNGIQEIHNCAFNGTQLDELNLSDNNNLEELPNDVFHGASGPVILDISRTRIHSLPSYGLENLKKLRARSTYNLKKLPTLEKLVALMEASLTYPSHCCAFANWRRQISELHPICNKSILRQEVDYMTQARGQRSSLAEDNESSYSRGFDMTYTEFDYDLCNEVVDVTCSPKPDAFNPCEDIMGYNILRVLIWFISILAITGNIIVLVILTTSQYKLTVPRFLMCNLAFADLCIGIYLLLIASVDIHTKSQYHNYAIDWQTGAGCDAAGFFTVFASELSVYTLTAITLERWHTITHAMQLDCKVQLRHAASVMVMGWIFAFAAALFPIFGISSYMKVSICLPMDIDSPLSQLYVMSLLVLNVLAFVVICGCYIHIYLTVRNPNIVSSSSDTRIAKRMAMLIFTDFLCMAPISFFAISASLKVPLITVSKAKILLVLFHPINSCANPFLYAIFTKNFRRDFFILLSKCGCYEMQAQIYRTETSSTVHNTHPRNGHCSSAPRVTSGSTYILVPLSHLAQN

Sequence of C-terminal HA tagged human Leptin receptor on LepR SIE-Bla cells (human) (P48357 22-1165): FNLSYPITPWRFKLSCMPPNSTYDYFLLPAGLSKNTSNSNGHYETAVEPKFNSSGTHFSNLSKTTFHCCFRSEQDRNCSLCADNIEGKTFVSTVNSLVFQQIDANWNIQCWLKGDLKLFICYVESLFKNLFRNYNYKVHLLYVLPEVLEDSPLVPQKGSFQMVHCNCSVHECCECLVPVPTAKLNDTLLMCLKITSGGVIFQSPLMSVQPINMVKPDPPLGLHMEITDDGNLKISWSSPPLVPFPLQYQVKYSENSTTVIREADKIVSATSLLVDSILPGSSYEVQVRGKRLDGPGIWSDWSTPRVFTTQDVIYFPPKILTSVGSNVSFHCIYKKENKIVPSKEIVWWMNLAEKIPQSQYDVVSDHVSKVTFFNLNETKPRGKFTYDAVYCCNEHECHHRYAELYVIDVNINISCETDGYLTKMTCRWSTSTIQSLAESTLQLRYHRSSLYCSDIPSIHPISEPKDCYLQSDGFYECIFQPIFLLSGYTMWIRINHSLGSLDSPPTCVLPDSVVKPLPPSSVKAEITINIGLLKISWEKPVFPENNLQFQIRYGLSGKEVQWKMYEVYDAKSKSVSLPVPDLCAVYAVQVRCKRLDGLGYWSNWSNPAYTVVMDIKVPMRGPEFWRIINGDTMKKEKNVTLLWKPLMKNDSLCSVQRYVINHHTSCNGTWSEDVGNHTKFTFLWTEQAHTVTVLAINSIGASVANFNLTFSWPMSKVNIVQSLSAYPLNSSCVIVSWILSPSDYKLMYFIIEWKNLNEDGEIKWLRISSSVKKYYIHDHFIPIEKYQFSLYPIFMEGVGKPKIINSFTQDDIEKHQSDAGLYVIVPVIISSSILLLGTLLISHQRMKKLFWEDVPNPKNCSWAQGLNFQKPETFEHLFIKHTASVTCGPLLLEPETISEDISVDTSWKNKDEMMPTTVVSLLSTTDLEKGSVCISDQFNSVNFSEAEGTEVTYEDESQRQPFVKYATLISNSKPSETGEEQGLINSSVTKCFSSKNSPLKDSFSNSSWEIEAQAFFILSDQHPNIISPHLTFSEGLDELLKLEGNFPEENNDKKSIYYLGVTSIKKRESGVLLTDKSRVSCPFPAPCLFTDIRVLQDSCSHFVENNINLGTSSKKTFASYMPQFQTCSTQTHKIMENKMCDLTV
Sequence of human LepR on Baf3 LepR cells (human) (P48357 22-1165): as above

EC50, FRET assay using the beta-lactamase-based LepR SIE-Bla cell line [1]	response ratio in a fluorescence resonance energy transfer (FRET) assay, LepR SIE-Bla cells [1]	EC50, proliferation assay using the Baf3 LepR cell line [2]	EC50, FRET assay using the beta-lactamase-based FSHR CRE-Bla cell line [3]	Substance
0.313 nM	8.5	0.31 nM	–	recombinant human Leptin protein (from UniProt P41159 22-167) (ligand)
–	–	–	0.0057 nM	single chain FSH (from UniProt P01225 19-129; P01215 25-116) (ligand)
